The record followed here is the supplement of paper PMC12042874.

± gives the uncertainty stated by the source.

The series in a line: amyloid nucleation score (Sup35N fusion, yeast selection) (log enrichment); library NNK3; higher = more nucleation; inactive = no reads after selection. A digest of the protocol: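 Nucleation score is defined as the DiMSum log enrichment of output over input reads, with centring on the mode score of non-aggregating sequences. A minimum of 100 input reads was required for each sequence. Reads came from Illumina sequencing of plasmid inserts from psi-negative yeast expressing Sup35N fused to peptides of 20 random codons, induced with 100 μM copper sulfate for 24 hours and grown 7 days at 30°C on medium lacking adenine and uracil.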
As to CSRPVVLIKGLLWAFRRWAY, the amyloid nucleation score entry was “inactive”.
With CSVQVGITSCSNGGYSNVYA the entry was “inactive”; with CSYWTGYCCQIVGLKSFGLV, 2.4 ± 0.083; with CTGCTFRYEKKDYNLGCLCK, “inactive”.
For CTGLECIGTAYRQGGDRVLW the value was “inactive”; for CTPFTLECW, -0.193 ± 1.1.
For CTQGMVYIS the value was “inactive”.
For the substance CVFCVNRTLLIVWIMVRY, the amyloid nucleation score result was “inactive”.
As for CVFIFLKSCKYKVVKGINGV, the amyloid nucleation score entry is “inactive”.
With CVHNLN the entry was “inactive”; with CVIITFESRILDELICDTVR, “inactive”.
With CVLCYRWSHMVLTPGMTGRD the entry was “inactive”; with CVMAMPSNIEV, “inactive”; with CVMNRN, “inactive”.
For CVPCRQHTYSWDFVRVHLTV the value was “inactive”.
Consider CVRTGWIIMDSNKLD, for which the amyloid nucleation score result is “inactive”.
For CVRVSPRSDYNQMMVRMGQW the value was “inactive”; for CVSFNLVSWVFNYCS, 2.55 ± 0.056; for CVVYLWWLVSASMLCSNWFG, “inactive”.
For CVWAVGVFFGFMIQRQDEER the value was “inactive”; for CVWLVVTSDFLFRQLL, 1.73 ± 0.11.
With CVWML the entry was “inactive”; with CVYYSRKG, 1.95 ± 0.073; with CWGST, “inactive”.
Regarding CWLYFLS, the amyloid nucleation score result is “inactive”.
As for CWNLISWSKEYA, the amyloid nucleation score result is “inactive”.
For CWYLVLSRLLCKNSRLHSNR the value was “inactive”.
With CYCPHPNGESFCFSVSWDTN, the amyloid nucleation score result was “inactive”.
With CYIMTYKSLNTF the entry was “inactive”; with CYLMYLSEILAYHVATWQAT, “inactive”; with CYNGTLGCGYRVLIRVSGSW, “inactive”.
With CYNWHMFTEYCCSSSQARSM the figure was 0.195 ± 0.57; with CYPFLWYCPNVCTVVSFDK, 2.46 ± 0.062.
CYTIRLWARLNLCRGIKS returned an amyloid nucleation score of -0.439 ± 1.1.
In the case of CYWIASRLFTKLSNYLSISG, the amyloid nucleation score result was “inactive”.
For the substance CYYRCDCLCMTWWGHRVIVV, the amyloid nucleation score entry was “inactive”.
As for DAGLRLLYSSLTGRL, the amyloid nucleation score entry is “inactive”.
For DAIPARVYYGCQFILCRNDL the value was 2.85 ± 0.084; for DALAVSINCSLFRCCSM, 3.3 ± 0.055; for DAYGLYYTSYYPGT, “inactive”.
In the case of DCDQVPI, the amyloid nucleation score result was “inactive”.
For DCFNNWWVTHYQQINFPTVA the value was “inactive”; for DCILGGSMMGRNTSMSAHDN, “inactive”; for DCKMRIEICDMGLCTEHRKC, “inactive”.
DCLASGMISFRVTMSNRYTI: the amyloid nucleation score stood at 0.241 ± 0.59.
With DDICIEKARDVVSMSPRSFR the entry was “inactive”.
For DDMTYGSVCNKSGRTPLLPS the value was “inactive”; for DDSMHDGLRVTRRVCKRGSF, “inactive”; for DEEQF, -0.143 ± 0.34.
With DEFVKYQP the entry was “inactive”.
DEVVWY: the amyloid nucleation score result is “inactive”.
As to DFILVSLLREDTNVGTACRV, the amyloid nucleation score result was “inactive”.
For DFRLPNSPYAHCYLMHRLII the value was “inactive”; for DFRSLWTRLSSHRSAFYLLS, “inactive”.
With DFSMSVNSA the entry was “inactive”; with DFTDYMPIMYTLHRVVIQMY, “inactive”; with DFTYEL, “inactive”.
With DFWKL, the amyloid nucleation score result was “inactive”.
For DGCSRVMFNASGAMRRKVAN the value was “inactive”; for DGEGN, “inactive”; for DGKGPMVYSGMCCRTFRGLV, “inactive”.
For DGNKNYDVKFIRLVTNI the value was “inactive”.
For DHPYQRLIEWWLLCIYGSMY the value was “inactive”; for DIFVDN, “inactive”.
With DIGMDGYRLLRRSQQRYFMN, the amyloid nucleation score entry was “inactive”.
With DILTDQS the entry was “inactive”; with DISQGLRRNSSGYLVQRGYA, “inactive”; with DIVLFLG, “inactive”.
For DIVVGAQRNELFS the value was “inactive”; for DIYFCYNIDFLYRVTLRQLR, “inactive”.
With DKCRVCISFC the figure was 1.14 ± 0.13.
As for DKNSWLYSASEYIWFFNTES, the amyloid nucleation score result is “inactive”.
For DKSDQSSRRFSGTRAYFSTM the value was “inactive”; for DKSSSFLVRGLLLHTSRATQ, “inactive”.
Regarding DKVTHQCSISMSWAWRVHVV, the amyloid nucleation score result was “inactive”.
Take DLAWPRMPTIQARVEQYCLI: the amyloid nucleation score entry is “inactive”.
For DLDECKFPINELSFHSSMGM the value was 1.83 ± 0.091; for DLLPLVTKYFSIGLH, “inactive”; for DLRVPLNTFRNYHVSRELVR, “inactive”.
For DLSPRYL the value was “inactive”.
For DLSRDMTNVSCRKSGLWGSG the value was “inactive”.
DLSVWRALYNGLLQRASH: the amyloid nucleation score result is “inactive”.
On to DLVNVYVLPLVS, for which the amyloid nucleation score entry was “inactive”.
For DLVRITMIVYYVAASHMVAS the value was “inactive”; for DMACMVFGWE, “inactive”.
For DMATVIVSKLFTVVVWYLFW the value was “inactive”; for DMCNYAFDGLCIYNYVNVVG, “inactive”.
With DMFVECRLISFNFTFIRVLI the entry was “inactive”.
Turning to DMGTYVSCRRIFKNGRYSGC, the amyloid nucleation score entry was “inactive”.
As to DMLHLWYLSVG, the amyloid nucleation score entry was “inactive”.
For DMRVFANMWLVEIPVPS the value was “inactive”; for DMVLSEPFFFGLCFLDFWIF, “inactive”; for DMYVLLMRTQSLGMPLIGIS, “inactive”.
Take DNATARLQTRNEWSMR: the amyloid nucleation score entry is “inactive”.
On to DNCCKLARVLAWFVFNRLNR, for which the amyloid nucleation score entry is “inactive”.
With DNFRVDLVNRLLFYRISHAA the entry was “inactive”.
For DNLWRVRLRCKAFSLYVLNR the value was “inactive”; for DNMSKTSFKLTNCRQCIM, “inactive”; for DNSGVSVQLRKVSESGSA, “inactive”.
With DNVNYPPVSYQTAG the entry was “inactive”; with DPWDPYFNLRVSYPFKYYLS, “inactive”.
For DPYAGLDNLTRIWASKPSKY, the amyloid nucleation score entry is “inactive”.
For DQCVLRLPFVIRGSHVSGRK the value was “inactive”; for DQDKLFSEIRAMKFCCSFPP, “inactive”; for DQHFCKSEREGTRYWLRLTI, “inactive”.
With DRDGQPAWHLS, the amyloid nucleation score entry is “inactive”.
In turn, DRHCLSL came in with an amyloid nucleation score of 0.582 ± 0.17.
For DRHSRCQ the value was “inactive”; for DRIAHF, “inactive”; for DRLRYNLWS, “inactive”.
For DRMKATVQLDFG the value was “inactive”; for DRSDSMYPINMREESREFTF, “inactive”.
For DRSLMRS the value was “inactive”; for DRVPSDTRCYKYGLLLLWYQ, “inactive”.
Turning to DSCKIYGG, the amyloid nucleation score entry was “inactive”.
With DSDDNVRKNFAS the entry was “inactive”; with DSFGLFCYTYLWCLWQANDK, 2.05 ± 0.097.
With DSFLSGSEELSVSDCCCIAF the entry was “inactive”.
With DSFRDRGCQQKIEIF the entry was “inactive”; with DSFVLSTTFLSSGTSAACLG, -1.32 ± 2.5; with DSGCLAMF, “inactive”.
DSGKC: the amyloid nucleation score is -0.165 ± 0.33.
For DSLAVFNNVRRSMTVSRSAA the value was -0.89 ± 1.3; for DSMVCSHCWLFDEGSYVYGQ, “inactive”.
With DSSDVVSVLVLSEMCAALVT the entry was “inactive”; with DSSRTVGCLSCFYFAIGFWI, 0.681 ± 0.34.
As for DSTSLKIGRNAMSHHKSNPC, the amyloid nucleation score amounted to 1.09 ± 0.11.
For DTGFCYKFNYIPVDVIICIC the value was 1.32 ± 0.12.
With DTISGGEWDNEVRPYRILLL the entry was “inactive”; with DTYGVVCEVYAILWMNRPLR, “inactive”.
For DVEFGLSKLCYHRVCYVTEM the value was -0.113 ± 0.66; for DVFDYVSTVVTNYW, “inactive”.
